Experimental data as given in the RNAGym collection of RNA variant scans (doi:10.7554/elife.80360).

B1: Hairpin Ribozyme (parent)
chain: GUCCUCUUUCACGUGCGCGUGAAAGAGAGAAGUGAACCAGAGAAACACACGUUGUGGUAUAUUACCUGGUA

Variants of: B1
Assay: self-cleavage, relative activity (ratio to wild type); higher = more cleavage; co-transcriptional

Variant	self-cleavage
GUCCUCUUUCACGAGCGCGUGAAAGAGAGAAGUGAACCAGAGAAACACAUGUUGUGGUAUAUUACCUGGUA	0.397
GUCCUCUUUCACGUUCGCGUGAAAGAGAGAAGUGAACCAGAGAAACAUACGUUGUGGUAUAUUACCUGGUA	0.149
GUCCUUUUUCACGUGCGCGUGAAAGAGAGAAGUGAACCAGAGAAACACACGUUGUGGUAUAUUUCCUGGUA	0.16
GUCCUCUUUCACGUGCGCGUGAAAGAGAGAAGUGAACAAGAGAAACACACGUUCUGGUAUAUUACCUGGUA	0.164
GUCCUCUUUCACGUGCGCGUGAAUGAGAGAAGUGAACCAGAGAAACACACGUUGUGGGAUAUUACCUGGUA	0.483
GUCCUCUUUCACGUGCGCGUGGAAGAGAGAAGUGAACCAGAGAAACACACGUUGUGGUAUCUUACCUGGUA	0.337
GUCCUCUUUCACGUGCGCGUGCAAGAAAGAAGUGAACCAGAGAAACACACGUUGUGGUAUAUUACCUGGUA	0.272
GUCCUCUUUCACGUGCGCGUGAAAGAGAGAAGUGAACCCGAGAAACACACGUUCUGGUAUAUUACCUGGUA	0.213
GUCCUCUUACACGUGCGCGUGAAAGAGAGAGGUGAACCAGAGAAACACACGUUGUGGUAUAUUACCUGGUA	0.313
GUCCUCUUUCACGUGCGCGUGAAAGAGAGAAGUGAACCACCGAAACACACGUUGUGGUAUAUUACCUGGUA	0.108
GUCCUCUUUCACGUGCGCGUUAAAGAUAGAAGUGAACCAGAGAAACACACGUUGUGGUAUAUUACCUGGUA	0.253
GUCCUCUCUCACGUGCGCGUGAAAGAGAGAAGAGAACCAGAGAAACACACGUUGUGGUAUAUUACCUGGUA	0.216
GUCCGCUUUCACGUGCGCGUGAAAGAGAGAAGUGAACCAGAGAAACACACGUUGUGGUAUAUUUCCUGGUA	0.161
GUCCUCUUUCACGUGCGCGUGCAAGAGAGAAGUGAACCAGAGAAACACACGUUGUGGUAUAUUACCUGGAA	0.862
GUCUUCUUUCACGUGCGCGUGAAGGAGAGAAGUGAACCAGAGAAACACACGUUGUGGUAUAUUACCUGGUA	0.272
GUCCUCUUUCACGUGCGCGUGAAAGAGAGAAGUGAACCAUAGAAACACACGUUGUGGUAUACUACCUGGUA	0.212
GUCCUCUUUCACGUGCGCGUGAAAGAGAGAAGUGACCCAGAGAAACACACGUUGUGGUAGAUUACCUGGUA	0.361
GUCCUUUUCCACGUGCGCGUGAAAGAGAGAAGUGAACCAGAGAAACACACGUUGUGGUAUAUUACCUGGUA	0.369
GUCCUCUUUCACGUGCGCGUGAAAGAGAGAAGUGAACCAGAGAAACUCACGUUGUGGUGUAUUACCUGGUA	0.151
GUCCUCUUUCACAUGCGCGUGAAAGAGAGAAGUGAACGAGAGAAACACACGUUGUGGUAUAUUACCUGGUA	0.0904
GUCCUCUUUCACGUGCGCGUGAAAGAGAGAAGUGAACCAGAGAAACACACGUCGUGGUAUAUUACCAGGUA	0.28
GUCCUCUUUCACGGGCGCGUGAAAUAGAGAAGUGAACCAGAGAAACACACGUUGUGGUAUAUUACCUGGUA	0.492
UUCCUCUUUCACGUGCGCGUCAAAGAGAGAAGUGAACCAGAGAAACACACGUUGUGGUAUAUUACCUGGUA	0.112
GUCCUCUUUCACGUGCGCGUGAAAGAGACAAGUGAACCAGAGAAACACACGUUAUGGUAUAUUACCUGGUA	0.1
GUCCUCUUUCGCGUGCGCGUGAAAGAGAGAAGAGAACCAGAGAAACACACGUUGUGGUAUAUUACCUGGUA	0.0249
GUCCUCUUUCACGUGCGCGUGAAAGAGAGAAGUGAAGCAGAGAAACACACGUUGUGGUAUAUUACCUGUUA	0.644

Variant	self-cleavage
GUCCUCUUUCACGUGCGCGUGAAAGAGAGAAGUGCACCAGAGAAACACACGUUGUGGUUUAUUACCUGGUA	0.105
GUCCUCUUUCAAGUGCGCGUGAAAGAGAGAAGUGAACCAGAGAAACACACGUUGUGGUAUAUUAACUGGUA	0.787
GGCCUCUUUCACGUGCGCGUAAAAGAGAGAAGUGAACCAGAGAAACACACGUUGUGGUAUAUUACCUGGUA	0.265
GUCCUCUUUCACGUGCGCGUGAAAGAGAGAAGUGAACCAGAGACACACACGUUGUGGUAUUUUACCUGGUA	0.212
GUCCUCUUUCACGUGCGCGUGAAAGAGAGAAGUGAACCAGAGAAACACACGUUGUUGUAUAUUACCUGUUA	0.207
GUCCUCUUUCACGUGCGCGUGGAAGAGAGAAGUGUACCAGAGAAACACACGUUGUGGUAUAUUACCUGGUA	0.715
GUCCUCUUUCACGUGCGAGUGAAAGAGAGAAGUGAACCAGAGAAAUACACGUUGUGGUAUAUUACCUGGUA	0.1
GUCCUCUUUCACGUGCGCGUGAAAGAGAGAAGUGAACCAGAGAAGCACACGUUGUGGUAUCUUACCUGGUA	0.142
GUCCUCUUUCACGUGCGCGUGAAAGGGAGAAGUGAACCAGAGAAACACACGUUGUGGUAUAUUACCUGUUA	0.204
GUCCUCUUUCACGUGUGCGUGAAAGAGAGAAGUGAACCAGAGAAACACACGUUGUGGCAUAUUACCUGGUA	1.1
GUCCUCUUUCACGUGCGCGUGAAAGAGAGAAGUGAACCAGAGAAACAAACGUUGUCGUAUAUUACCUGGUA	0.131
GUCCUCUGUCACGUGCGCGUGAAAGAGAGAAGUGAACCAGAGAAACACAAGUUGUGGUAUAUUACCUGGUA	0.227
GUCCGCUUUCACGUGCGCGUGAAAGAGAGAAGUGAACCAGAGAAACACACGUUGUGAUAUAUUACCUGGUA	0.127
GUCCUCGUUCACGUGCGCGUGAAAGAGAGAAGUGAACCAGAGAAACACACGUUGUGGUAUAUUACCUGAUA	0.398
GUCCUCUUUCACGUGCGCGUGAAAUAGAGAAAUGAACCAGAGAAACACACGUUGUGGUAUAUUACCUGGUA	0.128
GUCCUCUUACACGUGCGCGUGAAAGAGAGAAGUGAACCAGAGAAACACACGUUGUGGUAUAUAACCUGGUA	0.212
GUCCUCUUUCACGUGCGCGAGAAAGAGAGAAGUGAACCAGACAAACACACGUUGUGGUAUAUUACCUGGUA	0.306
GUCCUCUUUCACGUGCUCGUGAAAGAGAGUAGUGAACCAGAGAAACACACGUUGUGGUAUAUUACCUGGUA	0.116
GUCCUCUUUCACGUACGCGUGAAAGAGAGAAGCGAACCAGAGAAACACACGUUGUGGUAUAUUACCUGGUA	0.117
GUCCACUUUCACGUGCGCGUGAAGGAGAGAAGUGAACCAGAGAAACACACGUUGUGGUAUAUUACCUGGUA	0.381
GUCCUCUUUCUCGUGCGCGUGAAAGAGAGAAGUGAACCAGAGAAACACACGUUGAGGUAUAUUACCUGGUA	0.154
GUCCUCUUGCACGUGCGCGUGAAAGAGAGAAGUGAACCAGAGAAAGACACGUUGUGGUAUAUUACCUGGUA	0.161
GUCCUCUUUCACGUGCGCGUGAAAGAGAGAAGUGAUCCAGAGAAACACACGUUGUGGUAUAUUACGUGGUA	0.338
CUCCUCUUUCACGUGCGCGUGAAAGAGAGAAGUGAACAAGAGAAACACACGUUGUGGUAUAUUACCUGGUA	0.281
GUCCUCUUUCACGUGCGCGUGAAAGAGAGAAGGGAACCAGAGAAACACACGUUGUGGUAUAUUACCUGGCA	0.101
GUCCUCUUUCACGUGCGCGUUAAAGAGAGAAGUGAACCAGAGAAACACACGUUGUGGUCUAUUACCUGGUA	0.148

Variant	self-cleavage
GUCCUCUUUGACGUGCGCGUGAAAGAGAGAAGUGAACCAGAGAAACACACGUUGUGGUAUAUGACCUGGUA	0.113
GUCCUCUUUCACGUGCGCGUGAAAGAGAGAAGUGGACCAGAGAAACACACGUUGUGGUAUAUGACCUGGUA	0.221
GUCCUCUUUCACGUGCGCGUGAAAGAGAGAAGUGAAUCAGAGAGACACACGUUGUGGUAUAUUACCUGGUA	0.112
GUCCUCUUUCACGUGGGCGUGAAAGAGAGAACUGAACCAGAGAAACACACGUUGUGGUAUAUUACCUGGUA	0.091
GUCCUCUUUCACGUGCGCGUGGAAGAGAGAAGUGAACCAGAGAAACACACGUUGUGGUAUAUUACCUGGAA	0.81
GUCCGCUUUCACGUGCGCGUGAAAGAGAGAAGUGAACCAGAGAAACACACGUUAUGGUAUAUUACCUGGUA	0.204
GUCCUCUUUCACGUGCGCGUAAAAGAGAGAAGUGAACCAGAGAAACACACGUUGUGGUCUAUUACCUGGUA	0.13
UUCCUCUUUCACGUGCGCGUGAAAGAGAGAAGUGAACAAGAGAAACACACGUUGUGGUAUAUUACCUGGUA	0.154
GUCCUCUUUCACGUGCGCGUGAAAGAGAGAGGUGAACCAGAGAAACACACGUGGUGGUAUAUUACCUGGUA	0.495
GUCCUCUUUCACGUGCGCGUCAAAGAGAGAAGUGAUCCAGAGAAACACACGUUGUGGUAUAUUACCUGGUA	0.566
GUCCUAUUUCACGUGCGCGUGAAAGAGAGAAGUGAACCAGAGAAACAUACGUUGUGGUAUAUUACCUGGUA	0.158
GUCCUCUUUCACGUGCGCGUGAAAGAGAGAAGUGAACCAGAGAAACACACGUUGUGGUACAAUACCUGGUA	0.253
GUCCUCUUUCACGUGCGCGUAAAAGAGAGAAGUGAACCAGAGAAACACACGUAGUGGUAUAUUACCUGGUA	0.824
GUCUUCUUUCACGUGCGCAUGAAAGAGAGAAGUGAACCAGAGAAACACACGUUGUGGUAUAUUACCUGGUA	0.327
GUCCUUUUUCACGUGCGCGUGAAAGAGAGAAGUGAACCAGAGAAACACACGUUGUGGGAUAUUACCUGGUA	0.663
GUCCUCUUUCACGUGCGCGUGAAAGAGAGAAGUGAACCAGAGGAACACACGUUGUGGUAUAUUACCUGGUG	0.165
GUCCUCUUUCACGUGCGCGUGAAAGAGAGAAGUGAACCAGAGAAACACCCGUUGUAGUAUAUUACCUGGUA	0.17
GUCCUCUUUCACAUGCGCGUGAAAGAGAGAAGUGAACCAGAGAAACACACGUUGUGGUGUAUUACCUGGUA	0.104
GUCCUCUUUCACGUGCGCGUGAAAGUGAGAAGUGAACCAGAGAAACACACGUUGUGGUAUAUUACCUGGAA	0.575
GCCCUCUUUCACGUGCGCGUGAAAGAGAGAACUGAACCAGAGAAACACACGUUGUGGUAUAUUACCUGGUA	0.174
GUCCUCUUUCACGUGUGCGUGAAAGAGAGAAGUGAACCAGAGAAACUCACGUUGUGGUAUAUUACCUGGUA	0.0914
GUCCUCUUUCACGUGCGUGUGAAAGAGAGAAGUGAAUCAGAGAAACACACGUUGUGGUAUAUUACCUGGUA	0.713
GUCCCCUUUCACGUGCGCGUGAACGAGAGAAGUGAACCAGAGAAACACACGUUGUGGUAUAUUACCUGGUA	0.483
GUCCUCUUUCACGUGCGCGCGAAAGAGAGACGUGAACCAGAGAAACACACGUUGUGGUAUAUUACCUGGUA	0.0231
